Source: patent US20240360183A1 (SHANGHAI PUYOU BIOMEDICAL, published 2024)
Numbering of substitutions follows the chain as printed.

Experiments:
[1] = target: BSA (UniProt P02769 25-607); assay: cell-based or functional assay
[2] = target: oxidized HSA protein (UniProt P02768 25-609, oxidized with 8 mM NaClO in the dark for 30 min (which residues are oxidized is not stated)); assay: cell-based or functional assay
Chain of oxidized HSA protein (P02768 25-609): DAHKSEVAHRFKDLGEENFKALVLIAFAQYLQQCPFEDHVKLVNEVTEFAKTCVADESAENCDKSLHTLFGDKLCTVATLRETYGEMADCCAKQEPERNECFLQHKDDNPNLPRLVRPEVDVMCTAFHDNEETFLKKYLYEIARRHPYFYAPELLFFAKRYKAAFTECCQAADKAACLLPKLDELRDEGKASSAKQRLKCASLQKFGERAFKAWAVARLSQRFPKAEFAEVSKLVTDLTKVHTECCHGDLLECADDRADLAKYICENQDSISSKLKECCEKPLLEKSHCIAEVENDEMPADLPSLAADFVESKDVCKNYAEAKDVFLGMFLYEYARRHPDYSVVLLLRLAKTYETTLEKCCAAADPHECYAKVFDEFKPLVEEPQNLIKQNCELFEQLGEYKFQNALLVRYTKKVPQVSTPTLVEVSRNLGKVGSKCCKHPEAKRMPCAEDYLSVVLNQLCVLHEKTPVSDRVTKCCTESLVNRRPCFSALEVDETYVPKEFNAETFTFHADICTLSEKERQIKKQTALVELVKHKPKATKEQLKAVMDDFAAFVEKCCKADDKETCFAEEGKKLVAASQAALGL

Chain of BSA (P02769 25-607 limits assumed): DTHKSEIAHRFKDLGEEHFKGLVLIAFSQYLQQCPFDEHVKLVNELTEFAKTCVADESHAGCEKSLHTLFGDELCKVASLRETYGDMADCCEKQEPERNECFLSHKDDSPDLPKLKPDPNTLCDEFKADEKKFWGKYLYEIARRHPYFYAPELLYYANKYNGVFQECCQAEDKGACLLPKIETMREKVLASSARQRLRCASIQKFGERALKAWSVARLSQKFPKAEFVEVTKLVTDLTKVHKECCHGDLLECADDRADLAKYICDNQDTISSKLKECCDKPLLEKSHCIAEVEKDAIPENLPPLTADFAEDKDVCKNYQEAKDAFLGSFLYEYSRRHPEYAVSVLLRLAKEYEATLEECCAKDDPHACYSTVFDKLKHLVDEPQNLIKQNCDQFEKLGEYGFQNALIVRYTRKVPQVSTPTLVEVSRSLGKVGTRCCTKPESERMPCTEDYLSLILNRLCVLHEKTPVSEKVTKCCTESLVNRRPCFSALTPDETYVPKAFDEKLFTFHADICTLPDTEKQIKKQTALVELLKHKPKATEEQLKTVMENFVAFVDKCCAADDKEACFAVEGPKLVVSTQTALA

B1: CF-30 (SEQ ID NO: 47) (peptide)
chain: SDADEFDDDNSVWGWEDDEVEPNDAFQPLGDVRANEELDEKDHKLDEEADLQWEFELTVLLMILVCETPYGCYVLHQKGRMCSAFLCC
[1]
  IC50 (µM) for inhibiting thermal aggregation of BSA: 21.3 µM

B2: CF-28 (SEQ ID NO: 45) (peptide)
chain: SEFEDANKEQGEVPNDDVSDELPKLLDDDEDELRGALFFQWHDWEEAEDNDWDVEDATVLLMILVCETPYGCYVLHQKGRMCSAFLCC
[1]
  IC50 (µM) for inhibiting thermal aggregation of BSA: 7.48 µM

B3: CF-29 (SEQ ID NO: 46) (peptide)
chain: SELDFWDNWKDRQADLPAASDDEDFENDLAEVDHEDPLVDGNEWDGDEVEFELEEQKTVLLMILVCETPYGCYVLHQKGRMCSAFLCC
[1]
  IC50 (µM) for inhibiting thermal aggregation of BSA: 13.8 µM

B4: CF-31 (SEQ ID NO: 48) (peptide)
chain: SQWAPLDHLESDEWGAFEDEDFNNGDVEELDPEERDDEDLFQKDVLVAKADDEEWDNTVLLMILVCETPYGCYVLHQKGRMCSAFLCC
[1]
  IC50 (µM) for inhibiting thermal aggregation of BSA: 12.8 µM

B5: CF-11 (SEQ ID NO: 31) (peptide)
chain: SEKKQPVDLGLLEEDDEFEEFPAEDWAGLDEDEDAHVWEDNWDDDNVEDDFSNQLRATVLLMILVVETPYGVYVLHQKGRMVSAFLVV
[1]
  IC50 (µM) for inhibiting thermal aggregation of BSA: ~7 µM

B6: CF-40 (SEQ ID NO: 53) (peptide)
chain: B5 chain with E48T, D49S, V66C, V72C, V82C, V87C, V88C
[1]
  IC50 (µM) for inhibiting thermal aggregation of BSA: 12 µM
[2]
  IC50 (µM) for cellular ROS level induced by DAMP: 5.87 µM

B7: CF-10 (SEQ ID NO: 30) (peptide)
chain: B5 chain with V66C, V72C, V82C, V87C, V88A
[1]
  IC50 (µM) for inhibiting thermal aggregation of BSA: 13.8 µM

B8: CF-38 (SEQ ID NO: 51) (peptide)
chain: B5 chain with E2T, D25S, D34S, E48T, D49S, V66C, V72C, V82C, V87C, V88C
[1]
  IC50 (µM) for inhibiting thermal aggregation of BSA: 13.8 µM
[2]
  IC50 (µM) for cellular ROS level induced by DAMP: 4.12 µM

B9: CF-39 (SEQ ID NO: 52) (peptide)
chain: B5 chain with D34S, E48T, D49S, V66C, V72C, V82C, V87C, V88C
[1]
  IC50 (µM) for inhibiting thermal aggregation of BSA: 10.5 µM
[2]
  IC50 (µM) for cellular ROS level induced by DAMP: 3.91 µM

B10: CF-22 (SEQ ID NO: 36) (peptide)
chain: B5 chain with V72A, V82A
[1]
  IC50 (µM) for inhibiting thermal aggregation of BSA: 16.9 µM

B11: CF-04 (SEQ ID NO: 29) (peptide)
chain: B5 chain with V66A, V72A, V82A, V87A, V88A
[1]
  IC50 (µM) for inhibiting thermal aggregation of BSA: ~10.2 µM

B12: CF-25 (SEQ ID NO: 39) (peptide)
chain: B5 chain with V82A, V87A
[1]
  IC50 (µM) for inhibiting thermal aggregation of BSA: 21.5 µM

B13: CF-24 (SEQ ID NO: 38) (peptide)
chain: B5 chain with V72A, V88A
[1]
  IC50 (µM) for inhibiting thermal aggregation of BSA: 17.6 µM

B14: CF-43 (SEQ ID NO: 54) (peptide)
chain: SEKKQPVDLGLLEEDDEFEEFPAEDWAGLDEDEDAHVWEDNWDDDNVTSDFSNQLRATVLLMILVCETPYGCYVLHQKGRMCS
[1]
  IC50 (µM) for inhibiting thermal aggregation of BSA: 6.77 µM
[2]
  IC50 (µM) for cellular ROS level induced by DAMP: 6.13 µM
